In patent publication US20120277142A1 (HANALL BIOPHARMA, published 2012):
Substitutions are numbered along the chain they refer to.

B1: TNFRI171-S31 (receptor)
chain: MDSVCPQGKYIHPQNNSICCTKCHKGTYVYNDCPGPGQDTDCRECESGSFTAIENFLPACLSCSKCRKEMGQVEISSCTVDRDTVCGCRKNQYRHYWSENLFQCFNCSLCLNGTVHLSCQEKQNTVCTCHAGFFLRENECVSCSNCKKSLECTKLCLPQIENVKGTEDSGTT
notes: Met-TNFRI171 superlead mutant made in E. coli
B2: TNFRI171-S32 (receptor)
chain: B1 chain with V29L, K122Q
notes: as for B1
B3: TNFRI171-S33 (receptor)
chain: B1 chain with V29L, K122N
notes: as for B1
B4: TNFRI171-S34 (receptor)
chain: B1 chain with V29L, E161Q
notes: as for B1
B5: TNFRI171-S35 (receptor)
chain: B1 chain with V29L, D168N
notes: as for B1
B6: TNFRI171-S36 (receptor)
chain: B1 chain with I53M
notes: as for B1
B7: TNFRI171-S37 (receptor)
chain: B1 chain with V29L, I53M, K122Q
notes: as for B1
B8: TNFRI171-S38 (receptor)
chain: B1 chain with V29L, I53M, K122N
notes: as for B1
B9: TNFRI171-S39 (receptor)
chain: B1 chain with V29L, I53M, E161Q
notes: as for B1
B10: TNFRI171-S40 (receptor)
chain: B1 chain with V29L, I53M, D168N
notes: as for B1
B11: TNFRI171-S41 (receptor)
chain: B1 chain with I53H
notes: as for B1
B12: TNFRI171-S42 (receptor)
chain: B1 chain with V29L, I53H, K122Q
notes: as for B1
B13: TNFRI171-S43 (receptor)
chain: B1 chain with V29L, I53H, K122N
notes: as for B1
B14: TNFRI171-S44 (receptor)
chain: B1 chain with V29L, I53H, E161Q
notes: as for B1
B15: TNFRI171-S45 (receptor)
chain: B1 chain with V29L, I53H, D168N
notes: as for B1
B16: TNFRI171-S46 (receptor)
chain: B1 chain with A59G
notes: as for B1
B17: TNFRI171-S47 (receptor)
chain: B1 chain with I53M, A59G
notes: as for B1
B18: TNFRI171-S48 (receptor)
chain: B1 chain with E54P, A59G
notes: as for B1
B19: TNFRI171-S49 (receptor)
chain: B1 chain with V29L, E54P, A59G, K122Q
notes: as for B1
B20: TNFRI171-S50 (receptor)
chain: B1 chain with V29L, E54P, A59G, K122N
notes: as for B1
B21: TNFRI171-S51 (receptor)
chain: B1 chain with V29L, E54P, A59G, E161Q
notes: as for B1
B22: TNFRI171-S52 (receptor)
chain: B1 chain with V29L, E54P, A59G, D168N
notes: as for B1

These binders were tested against T1, TNF-α (UniProt P01375 77-233, limits assumed) (assay: competition ELISA: sample vs plate-bound TNFRI190 for TNF-α, from IC50, relative to wild-type TNFRI171).
T1 construct: also called tumor necrosis factor; ligand
Method: Each well was washed three times with 300 μL of washing buffer (0.05% Tween-20, PBS, pH 7.4) and incubated at room temperature for 2 hours with 300 μL of a blocking buffer (5% skim milk, PBS, pH 7.4). Then, each well was washed as mentioned above. A sample of interest was diluted to concentrations of 500 nM, 125 nM, 31 nM, 7.8 nM, 1.9 nM, 0.48 nM, 0.12 nM, and 0.03 nM in series and loaded in an amount of 100 μL into each well in duplicate. To each well was added 100 μL of 50 ng/ml TNF-α, followed by incubation at room temperature for 2 hours. After the wells were washed with a washing buffer, 100 μg/mL anti-TNF-α antibody solution was diluted 1/1000, added in an amount of 100 μL per each well, and incubated at room temperature for 2 hours. After the plates were washed with a washing buffer, a substrate was added in an amount of 100 μL to each well and reacted at room temperature for 15 min. In each well, 100 μL of the substrate 3,3′,5,5′-tetramethylbenzidine (RnD, Cat. No: DY999) was reacted at room temperature for 15 min, followed by adding 50 μL of 1.0 M sulfuric acid (Samchun Chemical, Cat. No: 52129) to each well to stop the reaction.
The affinity of the Met-TNFRI for TNF-α was assayed using the same procedure as in [Experimental Example 1]
For B1, the “Relative Affinity for Ligand (%)” value was 563%. With B2 the “Relative Affinity for Ligand (%)” value was 668%. For B3, the “Relative Affinity for Ligand (%)” value was 568%. B4 was tested, and the “Relative Affinity for Ligand (%)” value was 700%. B5 was tested, and the “Relative Affinity for Ligand (%)” value was 521%. For B6, the “Relative Affinity for Ligand (%)” value was 510%. With B7 the “Relative Affinity for Ligand (%)” value was 668%. For B8, the “Relative Affinity for Ligand (%)” value was 589%. For B9, the “Relative Affinity for Ligand (%)” value was 705%. B10 was tested, and the “Relative Affinity for Ligand (%)” value was 773%. B11 was tested, and the “Relative Affinity for Ligand (%)” value was 558%. In the case of B12, the “Relative Affinity for Ligand (%)” value is reported as 416%. In the case of B13, the “Relative Affinity for Ligand (%)” value is reported as 579%. B14 was tested, and the “Relative Affinity for Ligand (%)” value was 694%. For B15, the “Relative Affinity for Ligand (%)” value was 679%. In the case of B16, the “Relative Affinity for Ligand (%)” value is reported as 805%. In the case of B17, the “Relative Affinity for Ligand (%)” value is reported as 758%. For B18, the “Relative Affinity for Ligand (%)” value was 594%. In the case of B19, the “Relative Affinity for Ligand (%)” value is reported as 547%. B20 was tested, and the “Relative Affinity for Ligand (%)” value was 589%. For B21, the “Relative Affinity for Ligand (%)” value was 537%. In the case of B22, the “Relative Affinity for Ligand (%)” value is reported as 626%.
